{"source": "paper PMC12136788", "key": {"[1]": {"target": "T1, MSI1 full-length (mouse, UniProt Q61474 1-362)", "T1 sequence (Q61474 whole entry)": "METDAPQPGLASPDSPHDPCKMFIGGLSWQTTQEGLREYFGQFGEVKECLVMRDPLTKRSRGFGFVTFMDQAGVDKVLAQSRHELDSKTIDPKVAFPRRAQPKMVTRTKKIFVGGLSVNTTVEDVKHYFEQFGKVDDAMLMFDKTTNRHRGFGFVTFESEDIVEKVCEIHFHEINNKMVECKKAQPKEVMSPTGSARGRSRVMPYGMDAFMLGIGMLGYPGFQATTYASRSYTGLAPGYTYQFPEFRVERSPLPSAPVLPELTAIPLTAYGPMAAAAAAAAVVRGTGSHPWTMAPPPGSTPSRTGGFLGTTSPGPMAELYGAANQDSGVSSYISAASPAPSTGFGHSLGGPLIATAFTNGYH", "assay": "fluorescence polarization; FP: 5 nM RNA, 20 mM Hepes (pH not given), 5 mM DTT, 137.5 mM NaCl, 0.01% Triton X-100, 10 ng/ul BSA, 2 U/ml SUPERase-In; 15 min at 4 C, read at 25 C; positional"}, "[2]": {"target": "MSI2 full-length (UniProt Q96DH6 1-328)", "sequence (Q96DH6 whole entry)": "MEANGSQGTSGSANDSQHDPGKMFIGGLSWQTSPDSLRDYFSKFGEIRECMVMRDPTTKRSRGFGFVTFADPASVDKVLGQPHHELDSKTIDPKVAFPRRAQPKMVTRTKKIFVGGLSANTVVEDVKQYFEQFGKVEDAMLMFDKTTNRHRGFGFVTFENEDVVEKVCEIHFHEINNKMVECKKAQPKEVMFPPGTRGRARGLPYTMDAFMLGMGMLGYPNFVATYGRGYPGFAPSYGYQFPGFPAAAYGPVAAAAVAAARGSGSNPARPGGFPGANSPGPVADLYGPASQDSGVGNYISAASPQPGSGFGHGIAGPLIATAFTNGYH", "assay": "fluorescence polarization; FP: 5 nM RNA, 20 mM Hepes (pH not given), 5 mM DTT, 137.5 mM NaCl, 0.01% Triton X-100, 10 ng/ul BSA, 2 U/ml SUPERase-In; 15 min at 4 C, read at 25 C; positional"}, "[3]": {"target": "T2, UNK (called full-length) (UniProt Q9C0B0 30-357)", "T2 sequence": "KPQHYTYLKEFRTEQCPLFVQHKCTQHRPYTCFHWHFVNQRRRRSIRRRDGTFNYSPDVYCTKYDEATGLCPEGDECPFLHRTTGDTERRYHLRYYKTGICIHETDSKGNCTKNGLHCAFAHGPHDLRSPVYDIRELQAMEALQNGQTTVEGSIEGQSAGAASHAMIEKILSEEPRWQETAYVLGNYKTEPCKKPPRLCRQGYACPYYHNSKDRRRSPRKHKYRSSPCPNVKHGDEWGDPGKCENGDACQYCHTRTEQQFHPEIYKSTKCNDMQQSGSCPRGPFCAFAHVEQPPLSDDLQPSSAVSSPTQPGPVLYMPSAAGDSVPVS", "assay": "fluorescence polarization; FP: 5 nM RNA, 20 mM Hepes (pH not given), 5 mM DTT, 137.5 mM NaCl, 0.01% Triton X-100, 10 ng/ul BSA, 2 U/ml SUPERase-In; 15 min at 4 C, read at 25 C; positional"}, "[4]": {"target": "MSI1 swap (mouse, UniProt Q61474 1-19+109-191+104-108+20-103+192-362, internal_change)", "sequence (Q61474 other isoform, or with tags, fused parts or gaps)": "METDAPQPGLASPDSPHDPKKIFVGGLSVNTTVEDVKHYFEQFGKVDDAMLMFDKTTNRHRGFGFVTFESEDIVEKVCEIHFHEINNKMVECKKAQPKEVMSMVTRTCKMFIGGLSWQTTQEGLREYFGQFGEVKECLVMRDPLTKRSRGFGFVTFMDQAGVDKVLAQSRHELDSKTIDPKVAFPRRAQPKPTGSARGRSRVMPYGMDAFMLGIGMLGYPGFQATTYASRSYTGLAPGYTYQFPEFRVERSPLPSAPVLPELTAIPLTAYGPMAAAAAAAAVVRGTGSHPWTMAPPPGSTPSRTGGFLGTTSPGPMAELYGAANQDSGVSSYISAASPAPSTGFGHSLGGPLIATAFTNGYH", "assay": "fluorescence polarization; FP: 5 nM RNA, 20 mM Hepes (pH not given), 5 mM DTT, 137.5 mM NaCl, 0.01% Triton X-100, 10 ng/ul BSA, 2 U/ml SUPERase-In; 15 min at 4 C, read at 25 C; positional"}, "[5]": {"target": "T2, UNK (called full-length)", "assay": "fluorescence polarization; 50 nM unlabeled N16 RNA; FP: 5 nM RNA, 20 mM Hepes (pH not given), 5 mM DTT, 137.5 mM NaCl, 0.01% Triton X-100, 10 ng/ul BSA, 2 U/ml SUPERase-In; 15 min at 4 C, read at 25 C; positional"}, "[6]": {"target": "T1, MSI1 full-length", "assay": "fluorescence polarization; FP: 5 nM RNA, 20 mM Hepes (pH not given), 5 mM DTT, 137.5 mM NaCl, 0.01% Triton X-100, 10 ng/ul BSA, 2 U/ml SUPERase-In; 15 min at 4 C, read at 25 C; positional", "remark": "listed apart in the source"}, "[7]": {"target": "T2, UNK (called full-length)", "assay": "fluorescence polarization; 50 nM unlabeled N16 RNA; FP: 5 nM RNA, 20 mM Hepes (pH not given), 5 mM DTT, 137.5 mM NaCl, 0.01% Triton X-100, 10 ng/ul BSA, 2 U/ml SUPERase-In; 15 min at 4 C, read at 25 C; positional", "remark": "listed apart in the source"}}, "data": [{"binder": "UAGUUUAGUUUAGUU (ssRNA)", "note": "[tri-UAG FP RNA]", "values": [{"measurement": "Kd", "setting": "[1]", "value": 5, "unit": "nM"}, {"measurement": "Kd", "setting": "[2]", "value": 2, "unit": "nM"}]}, {"binder": "CCCCCCCCCCCCCCCC (ssRNA)", "note": "[polyC FP RNA]", "values": [{"measurement": "binding result", "setting": "[3]", "value": "no binding"}]}, {"binder": "UUUUUUUUUUUUUUUU (ssRNA)", "note": "[polyU FP RNA]", "values": [{"measurement": "binding result", "setting": "[3]", "value": "no binding"}]}, {"binder": "AAAAAAAAUUAGAAAAAA (ssRNA)", "note": "[mono-UAG FP RNA]", "values": [{"measurement": "binding signal", "setting": "[4]", "value": "~2 fold weaker than MSI1 on mono-UAG"}, {"measurement": "Kd", "setting": "[1]", "value": 126, "unit": "nM"}, {"measurement": "Kd", "setting": "[5]", "value": 400, "unit": "nM"}]}, {"binder": "UUAGUUAGUU (ssRNA)", "note": "[dual-UAG FP RNA]", "values": [{"measurement": "binding signal", "setting": "[4]", "value": "~1 fold vs MSI1 on dual-UAG (no observable Kd difference)"}, {"measurement": "binding signal", "setting": "[6]", "value": "~10 fold tighter than mono-UAG"}]}, {"binder": "AAAAAUUAGUUAAUA (ssRNA)", "note": "[UAG-AUA FP RNA]", "values": [{"measurement": "Kd", "setting": "[5]", "value": 90, "unit": "nM"}]}, {"binder": "CCCCCCAAUUAGAAAAAA (ssRNA)", "note": "[CCC-UAG FP RNA]", "values": [{"measurement": "binding signal", "setting": "[7]", "value": "~2 fold tighter than mono-UAG"}]}, {"binder": "CCCCCCAAUUAGUUAAUA (ssRNA)", "note": "[CCC-UAG-AUA FP RNA]", "values": [{"measurement": "binding signal", "setting": "[7]", "value": "~1 fold vs UAG-AUA (little impact of upstream C)"}]}]}
